This is an account of results in patent US20200317792A1 (INSMED, published 2020).

This test concerns the target T1, recombinant, soluble his tagged human EGFR (Sino Biologicals) (human, UniProt P00533 25-645).
T1 construct: extracellular domain; also called human epidermal growth factor receptor; not shown: his tag
Description: BLI (ForteBio Octet Red), IgG on protein A tips, 100 nM soluble EGFR. (Biolayer interferometry detects binding as a change in optical thickness at a sensor tip.)

Numbering of substitutions follows the chain as printed.
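Further: antibody binding to EGFR read out as on and off rates plus equilibrium affinity, calculated with the Octet instrument software.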

B1: CoDAH design C1 VH/C4 Vκ (antibody, V domains shown)
VH: QVQLQQSGPGLVKPSQTLSLTCTVSGFSLTNYGVHWVRQSPGKGLEWLGVIWSGGNTDYNTPFTSRLTISKDTSKNQVSLKLSSVTSNDTAVYYCARALTYYDYEFAYWGQGTLVTVSA
VL: DIVLTQSPVILSVSPGERVTFSCRASQSIGTNIHWYQQKPDQSPKLLIKYASESISGVPSRFSGSGSGTDFTLTINSVESEDIADYYCQQNNNWPTTFGQGTKLELKR
notes: Cross pair; Measured as full length IgG
In the case of B1, the binding result is listed as “binds”.

B2: CoDAH design C5 VH/C3 Vκ (antibody, V domains shown)
VH: QVQLQQSGPGLVKPSETLSITCTVSGFSLTNYGVHWVRQSPGKGLEWLGVIWSGGNTDYNTPFTSRLTINKDNSKSQVFFKMNSLQSNDTAVYYCARALTYYDYEFAYWGQGTLVTVSA
VL: B1 VL with V3L, Q100A
notes: as for B1
Regarding B2, the binding result was “binds”.

B3: CoDAH design C4 VH/C1 Vκ (antibody, V domains shown)
VH: B2 VH with E16Q, I20L, N70S
VL: B1 VL with V9D, I10F, L11Q, S14T, G16K, R18K, F21I, S22T, Q100A
notes: as for B1
On to B3, for which the binding result is recorded as “binds”.

B4: CoDAH design C5 VH/C5 Vκ (antibody, V domains shown)
VH: B2 VH
VL: B1 VL with D1E, P40T, K45R, V58I
notes: Pareto optimal design; Measured as full length IgG
Take B4: the binding result is recorded as “binds”.

B5: CoDAH design C4 VH/C2 Vκ (antibody, V domains shown)
VH: B2 VH with E16Q, I20L, N70S
VL: B1 VL with I10F, S14T, R18K, F21I, S22T, Q100A
notes: as for B1
With B5, the binding result was “binds”.

B6: CoDAH design C5 VH/C2 Vκ (antibody, V domains shown)
VH: B2 VH
VL: B1 VL with I10F, S14T, R18K, F21I, S22T, Q100A
notes: as for B1
On to B6, for which the binding result was “binds”.

B7: CoDAH design C5 VH/C1 Vκ (antibody, V domains shown)
VH: B2 VH
VL: B1 VL with V9D, I10F, L11Q, S14T, G16K, R18K, F21I, S22T, Q100A
notes: as for B1
Take B7: the binding result is “binds”.

B8: CoDAH design C2 VH/C3 Vκ (antibody, V domains shown)
VH: B1 VH with K71V
VL: B1 VL with V3L, Q100A
notes: Cross pair; Measured as full length IgG; also called C3 Vκ/C2 VH
Turning to B8, the binding result is on record as “binds”.

B9: CoDAH design C2 VH/C5 Vκ (antibody, V domains shown)
VH: B1 VH with K71V
VL: B1 VL with D1E, P40T, K45R, V58I
notes: as for B1
Take B9: the binding result is listed as “binds”.

B10: CoDAH design C1 VH/C5 Vκ (antibody, V domains shown)
VH: B1 VH
VL: B1 VL with D1E, P40T, K45R, V58I
notes: as for B1
As for B10, the binding result was “binds”.

B11: CoDAH design C3 VH/C5 Vκ (antibody, V domains shown)
VH: B1 VH with Q16E, K71V
VL: B1 VL with D1E, P40T, K45R, V58I
notes: as for B1
Turning to B11, the binding result is recorded as “binds”.

B12: CoDAH design C3 VH/C1 Vκ (antibody, V domains shown)
VH: B1 VH with Q16E, K71V
VL: B1 VL with V9D, I10F, L11Q, S14T, G16K, R18K, F21I, S22T, Q100A
notes: as for B1
Consider B12, for which the binding result is on record as “binds”.

B13: CoDAH design C1 VH/C2 Vκ (antibody, V domains shown)
VH: B1 VH
VL: B1 VL with I10F, S14T, R18K, F21I, S22T, Q100A
notes: as for B1
For B13, the binding result was “binds”.

B14: CoDAH design C4 VH/C4 Vκ (antibody, V domains shown)
VH: B2 VH with E16Q, I20L, N70S
VL: B1 VL
notes: as for B4
As to B14, the binding result is reported as “binds”.

B15: CoDAH design C1 VH/C1 Vκ (antibody, V domains shown)
VH: B1 VH
VL: B1 VL with V9D, I10F, L11Q, S14T, G16K, R18K, F21I, S22T, Q100A
notes: as for B4
As to B15, the binding result was “binds”.

B16: CoDAH design C1 VH/C3 Vκ (antibody, V domains shown)
VH: B1 VH
VL: B1 VL with V3L, Q100A
notes: as for B1
Consider B16, for which the binding result is recorded as “binds”.

B17: CoDAH design C3 VH/C4 Vκ (antibody, V domains shown)
VH: B1 VH with Q16E, K71V
VL: B1 VL
notes: as for B1
For the molecule B17, the binding result was “binds”.

B18: CoDAH design C4 VH/C5 Vκ (antibody, V domains shown)
VH: B2 VH with E16Q, I20L, N70S
VL: B1 VL with D1E, P40T, K45R, V58I
notes: as for B1
Take B18: the binding result is “binds”.

B19: CoDAH design C5 VH/C4 Vκ (antibody, V domains shown)
VH: B2 VH
VL: B1 VL
notes: as for B1
B19: the binding result was “binds”.

B20: CoDAH design C4 VH/C3 Vκ (antibody, V domains shown)
VH: B2 VH with E16Q, I20L, N70S
VL: B1 VL with V3L, Q100A
notes: as for B1
Regarding B20, the binding result is on record as “binds”.

B21: CoDAH design C3 VH/C2 Vκ (antibody, V domains shown)
VH: B1 VH with Q16E, K71V
VL: B1 VL with I10F, S14T, R18K, F21I, S22T, Q100A
notes: as for B1
Take B21: the binding result is given as “binds”.

B22: CoDAH design C2 VH/C4 Vκ (antibody, V domains shown)
VH: B1 VH with K71V
VL: B1 VL
notes: as for B1
Consider B22, for which the binding result is given as “binds”.

B23: CoDAH design C3 VH/C3 Vκ (antibody, V domains shown)
VH: B1 VH with Q16E, K71V
VL: B1 VL with V3L, Q100A
notes: as for B4
As to B23, the binding result is “binds”.

B24: CoDAH design C2 VH/C1 Vκ (antibody, V domains shown)
VH: B1 VH with K71V
VL: B1 VL with V9D, I10F, L11Q, S14T, G16K, R18K, F21I, S22T, Q100A
notes: as for B1
For the molecule B24, the binding result is given as “binds”.

B25: CoDAH design C2 VH/C2 Vκ (antibody, V domains shown)
VH: B1 VH with K71V
VL: B1 VL with I10F, S14T, R18K, F21I, S22T, Q100A
notes: as for B4
On to B25, for which the binding result is “binds”.
